Measured values as given in publication PMC8034652 (Nucleic Acids Research, 2021).
Changes are numbered by the printed parent chain. Numbers in names are those of the source.

B1: FOXO1 R225A mutant (domain or fragment)
chain: KSSSSRRNAWGNLSYADLITKAIESSAEKRLTLSQIYEWMVKSVPYFKDKGDSNSSAGWKNSIRHNLSLHSKFIAVQNEGTGKSSWWMLNPEGGKSGKSPRRRAASMDNNSKFAKS
B2: FOXO1 Q227A mutant (domain or fragment)
chain: B1 chain with A75R, Q77A

Target: the molecule itself
Test: native gel or EMSA

Row | Protein | binding result
1 | B1 | binds
2 | B2 | binds
